Assays:
[1] = target: wild type human growth hormone, P01241
Sequence of wild type human growth hormone, P01241 (P01241 27-217): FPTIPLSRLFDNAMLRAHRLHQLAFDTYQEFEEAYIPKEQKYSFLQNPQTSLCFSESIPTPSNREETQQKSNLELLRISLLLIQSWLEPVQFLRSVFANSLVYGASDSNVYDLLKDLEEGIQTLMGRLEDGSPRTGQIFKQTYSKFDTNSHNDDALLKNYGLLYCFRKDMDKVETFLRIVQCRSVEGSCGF

Sequence of hGHQ40N, P01241 (P01241 27-217 Q66N): as the sequence (P01241 27-217) above, with Q40N counted along it
Sequence of hGHQ141N, P01241 (P01241 27-217 Q167N): as the sequence (P01241 27-217) above, with Q141N counted along it

B1: mTGase from Streptomyces mobaraensis (protein)
chain: DSDDRVTPPAEPLDRMPDPYRPSYGRAETVVNNYIRKWQQVYSHRDGRKQQMTEEQREWLSYGCVGVTWVNSGQYPTNRLAFASFDEDRFKNELKNGRPRSGETRAEFEGRVAKESFDEEKGFQRAREVASVMNRALENAHDESAYLDNLKKELANGNDALRNEDARSPFYSALRNTPSFKERNGGNHDPSRMKAVIYSKHFWSGQDRSSSADKRKYGDPDAFRPAPGTGLVDMSRDRNIPRSPTSPGEGFVNFDYGWFGAQTEADADKTVWTHGNHYHAPNGSLGAMHVYESKFRNWSEGYSDFDRGAYVITFIPKSWNTAPDKVKQGWP
B1 was tested, and the Activity (RFU/sec/µg), dansyl-cadaverine fluorescence kinetics (hGHQ141N, P01241) was 0.98 RFU/sec/µg, the “HPLC peak area of product-Q40 (FIG. 4, bottom)” value (hGHQ141N, P01241) was “The first peak (19.5 min, area 296) is product-Q40” and the product-Q40 after 30 minutes, FPLC areas normalized to 100 (normalized to 100) (hGHQ141N, P01241) was 19. The Activity towards hGHQ40N (RFU/sec/µg), dansyl-cadaverine fluorescence kinetics (hGHQ40N, P01241) was 3.35 RFU/sec/µg, the “HPLC peak area of product-Q141 (FIG. 4, top)” value (hGHQ40N, P01241) was “The first peak (26.9 min, area 1283) is product-Q141” and the product-Q141 after 30 minutes, FPLC areas normalized to 100 (normalized to 100) (hGHQ40N, P01241) was 71.

B2: AlaPro-mTGase from S. mobaraensis (protein)
chain: APDSDDRVTPPAEPLDRMPDPYRPSYGRAETVVNNYIRKWQQVYSHRDGRKQQMTEEQREWLSYGCVGVTWVNSGQYPTNRLAFASFDEDRFKNELKNGRPRSGETRAEFEGRVAKESFDEEKGFQRAREVASVMNRALENAHDESAYLDNLKKELANGNDALRNEDARSPFYSALRNTPSFKERNGGNHDPSRMKAVIYSKHFWSGQDRSSSADKRKYGDPDAFRPAPGTGLVDMSRDRNIPRSPTSPGEGFVNFDYGWFGAQTEADADKTVWTHGNHYHAPNGSLGAMHVYESKFRNWSEGYSDFDRGAYVITFIPKSWNTAPDKVKQGWP
In the case of B2, the Activity (RFU/sec/µg), dansyl-cadaverine fluorescence kinetics (hGHQ141N, P01241) is reported as 1.56 RFU/sec/µg, the Activity towards hGHQ40N (RFU/sec/µg), dansyl-cadaverine fluorescence kinetics (hGHQ40N, P01241) is reported as 5.05 RFU/sec/µg and the “conversion rate by CE (FIG. 2B); reaction time 30 minutes” value [1] is reported as “conversion rate=32%”. It also gave a hGH conv. rate (%) by CE, reference of the separate experiment; reaction time 45 m, enzyme 4.6 µg/ml [1] of 39% and a hGH conv. rate (%) by CE; reaction time 30 m, enzyme 9.6 µg/ml [1] of 33%.

B3: GlyPro-mTGase from S. mobaraensis (protein)
chain: GPDSDDRVTPPAEPLDRMPDPYRPSYGRAETVVNNYIRKWQQVYSHRDGRKQQMTEEQREWLSYGCVGVTWVNSGQYPTNRLAFASFDEDRFKNELKNGRPRSGETRAEFEGRVAKESFDEEKGFQRAREVASVMNRALENAHDESAYLDNLKKELANGNDALRNEDARSPFYSALRNTPSFKERNGGNHDPSRMKAVIYSKHFWSGQDRSSSADKRKYGDPDAFRPAPGTGLVDMSRDRNIPRSPTSPGEGFVNFDYGWFGAQTEADADKTVWTHGNHYHAPNGSLGAMHVYESKFRNWSEGYSDFDRGAYVITFIPKSWNTAPDKVKQGWP
With B3 the Activity (RFU/sec/µg), dansyl-cadaverine fluorescence kinetics (hGHQ141N, P01241) was 1.13 RFU/sec/µg and the Activity towards hGHQ40N (RFU/sec/µg), dansyl-cadaverine fluorescence kinetics (hGHQ40N, P01241) was 4.28 RFU/sec/µg.

B4: AlaPro-mTGase from S. ladakanum (protein)
chain: APDSDERVTPPAEPLDRMPDPYRPSYGRAETIVNNYIRKWQQVYSHRDGRKQQMTEEQREWLSYGCVGVTWVNSGQYPTNRLAFAFFDEDKYKNELKNGRPRSGETRAEFEGRVAKDSFDEAKGFQRARDVASVMNKALENAHDEGAYLDNLKKELANGNDALRNEDARSPFYSALRNTPSFKDRNGGNHDPSKMKAVIYSKHFWSGQDRSGSSDKRKYGDPEAFRPDRGTGLVDMSRDRNIPRSPTSPGESFVNFDYGWFGAQTEADADKTVWTHGNHYHAPNGSLGAMHVYESKFRNWSDGYSDFDRGAYVVTFVPKSWNTAPDKVKQGWP
Protein B4 has an Activity (RFU/sec/µg), dansyl-cadaverine fluorescence kinetics (hGHQ141N, P01241) of 1.02 RFU/sec/µg and an Activity towards hGHQ40N (RFU/sec/µg), dansyl-cadaverine fluorescence kinetics (hGHQ40N, P01241) of 6.91 RFU/sec/µg.

B5: GlyPro-mTGase_Y75F from S. ladakanum (protein)
chain: GPDSDERVTPPAEPLDRMPDPYRPSYGRAETIVNNYIRKWQQVYSHRDGRKQQMTEEQREWLSYGCVGVTWVNSGQFPTNRLAFAFFDEDKYKNELKNGRPRSGETRAEFEGRVAKDSFDEAKGFQRARDVASVMNKALENAHDEGAYLDNLKKELANGNDALRNEDARSPFYSALRNTPSFKDRNGGNHDPSKMKAVIYSKHFWSGQDRSGSSDKRKYGDPEAFRPDRGTGLVDMSRDRNIPRSPTSPGESFVNFDYGWFGAQTEADADKTVWTHGNHYHAPNGSLGAMHVYESKFRNWSDGYSDFDRGAYVVTFVPKSWNTAPDKVKQGWP
With B5 the hGH conv. rate (%) by CE; reaction time 60 m, enzyme 12.9 µg/ml [1] was 41% and the “hGH conversion rate by CE (FIG. 2E); reaction time 75 m” value [1] was “hGH conversion rate=33%”.

B6: GlyPro-mTGase_Y62H_Y75N from S. ladakanum (protein)
chain: GPDSDERVTPPAEPLDRMPDPYRPSYGRAETIVNNYIRKWQQVYSHRDGRKQQMTEEQREWLSHGCVGVTWVNSGQNPTNRLAFAFFDEDKYKNELKNGRPRSGETRAEFEGRVAKDSFDEAKGFQRARDVASVMNKALENAHDEGAYLDNLKKELANGNDALRNEDARSPFYSALRNTPSFKDRNGGNHDPSKMKAVIYSKHFWSGQDRSGSSDKRKYGDPEAFRPDRGTGLVDMSRDRNIPRSPTSPGESFVNFDYGWFGAQTEADADKTVWTHGNHYHAPNGSLGAMHVYESKFRNWSDGYSDFDRGAYVVTFVPKSWNTAPDKVKQGWP
Work on B6 yielded a hGH conv. rate (%) by CE; reaction time 75 m, enzyme 34.5 µg/ml [1] of 38%.

B7: GlyPro-mTGase_Y75N from S. ladakanum (protein)
chain: GPDSDERVTPPAEPLDRMPDPYRPSYGRAETIVNNYIRKWQQVYSHRDGRKQQMTEEQREWLSYGCVGVTWVNSGQNPTNRLAFAFFDEDKYKNELKNGRPRSGETRAEFEGRVAKDSFDEAKGFQRARDVASVMNKALENAHDEGAYLDNLKKELANGNDALRNEDARSPFYSALRNTPSFKDRNGGNHDPSKMKAVIYSKHFWSGQDRSGSSDKRKYGDPEAFRPDRGTGLVDMSRDRNIPRSPTSPGESFVNFDYGWFGAQTEADADKTVWTHGNHYHAPNGSLGAMHVYESKFRNWSDGYSDFDRGAYVVTFVPKSWNTAPDKVKQGWP
For B7, the hGH conv. rate (%) by CE; reaction time 120 m, enzyme 6.5 µg/ml [1] was 44% and the “hGH conversion rate by CE (FIG. 2F); reaction time 90 m” value [1] was “hGH conversion rate=50%”.

B8: GlyPro-mTGase_Y62H_Y75F from S. ladakanum (protein)
chain: GPDSDERVTPPAEPLDRMPDPYRPSYGRAETIVNNYIRKWQQVYSHRDGRKQQMTEEQREWLSHGCVGVTWVNSGQFPTNRLAFAFFDEDKYKNELKNGRPRSGETRAEFEGRVAKDSFDEAKGFQRARDVASVMNKALENAHDEGAYLDNLKKELANGNDALRNEDARSPFYSALRNTPSFKDRNGGNHDPSKMKAVIYSKHFWSGQDRSGSSDKRKYGDPEAFRPDRGTGLVDMSRDRNIPRSPTSPGESFVNFDYGWFGAQTEADADKTVWTHGNHYHAPNGSLGAMHVYESKFRNWSDGYSDFDRGAYVVTFVPKSWNTAPDKVTQGWP
B8 was tested, and the RS (relative selectivity against AlaPro-mTGase from S. mobaraensis), separate experiment [1] was 7.6, the Selectivity (Q141/Q40) by CE, separate experiment; reaction time 60 m, enzyme 8.8 µg/ml [1] was 76.5 and the hGH conv. rate (%) by CE, separate experiment; reaction time 60 m, enzyme 8.8 µg/ml [1] was 38.1%. The hGH conv. rate (%) by CE; reaction time 120 m, enzyme 7 µg/ml [1] was 49.4%.

B9: GlyPro-mTGase from S. ladakanum (protein)
chain: GPDSDERVTPPAEPLDRMPDPYRPSYGRAETIVNNYIRKWQQVYSHRDGRKQQMTEEQREWLSYGCVGVTWVNSGQYPTNRLAFAFFDEDKYKNELKNGRPRSGETRAEFEGRVAKDSFDEAKGFQRARDVASVMNKALENAHDEGAYLDNLKKELANGNDALRNEDARSPFYSALRNTPSFKDRNGGNHDPSKMKAVIYSKHFWSGQDRSGSSDKRKYGDPEAFRPDRGTGLVDMSRDRNIPRSPTSPGESFVNFDYGWFGAQTEADADKTVWTHGNHYHAPNGSLGAMHVYESKFRNWSDGYSDFDRGAYVVTFVPKSWNTAPDKVKQGWP
In the case of B9, the Activity (RFU/sec/µg), dansyl-cadaverine fluorescence kinetics (hGHQ141N, P01241) is reported as 0.48 RFU/sec/µg, the Activity towards hGHQ40N (RFU/sec/µg), dansyl-cadaverine fluorescence kinetics (hGHQ40N, P01241) is reported as 4.25 RFU/sec/µg and the hGH conv. rate (%) by CE; reaction time 15 m, enzyme 16 µg/ml [1] is reported as 55%.

B10: Met-mTGase from S. mobaraensis (protein)
chain: MDSDDRVTPPAEPLDRMPDPYRPSYGRAETVVNNYIRKWQQVYSHRDGRKQQMTEEQREWLSYGCVGVTWVNSGQYPTNRLAFASFDEDRFKNELKNGRPRSGETRAEFEGRVAKESFDEEKGFQRAREVASVMNRALENAHDESAYLDNLKKELANGNDALRNEDARSPFYSALRNTPSFKERNGGNHDPSRMKAVIYSKHFWSGQDRSSSADKRKYGDPDAFRPAPGTGLVDMSRDRNIPRSPTSPGEGFVNFDYGWFGAQTEADADKTVWTHGNHYHAPNGSLGAMHVYESKFRNWSEGYSDFDRGAYVITFIPKSWNTAPDKVKQGWP
B10 showed an Activity (RFU/sec/µg), dansyl-cadaverine fluorescence kinetics (hGHQ141N, P01241) of 1.24 RFU/sec/µg and an Activity towards hGHQ40N (RFU/sec/µg), dansyl-cadaverine fluorescence kinetics (hGHQ40N, P01241) of 5.44 RFU/sec/µg.

B11: Met-mTGase from S. ladakanum (protein)
chain: MDSDERVTPPAEPLDRMPDPYRPSYGRAETIVNNYIRKWQQVYSHRDGRKQQMTEEQREWLSYGCVGVTWVNSGQYPTNRLAFAFFDEDKYKNELKNGRPRSGETRAEFEGRVAKDSFDEAKGFQRARDVASVMNKALENAHDEGAYLDNLKKELANGNDALRNEDARSPFYSALRNTPSFKDRNGGNHDPSKMKAVIYSKHFWSGQDRSGSSDKRKYGDPEAFRPDRGTGLVDMSRDRNIPRSPTSPGESFVNFDYGWFGAQTEADADKTVWTHGNHYHAPNGSLGAMHVYESKFRNWSDGYSDFDRGAYVVTFVPKSWNTAPDKVKQGWP
B11 showed an Activity (RFU/sec/µg), dansyl-cadaverine fluorescence kinetics (hGHQ141N, P01241) of 0.8 RFU/sec/µg and an Activity towards hGHQ40N (RFU/sec/µg), dansyl-cadaverine fluorescence kinetics (hGHQ40N, P01241) of 4.74 RFU/sec/µg.

B12: Mature mTGase from Streptoverticillium ladakanum (protein)
chain: DSDERVTPPAEPLDRMPDPYRPSYGRAETIVNNYIRKWQQVYSHRDGRKQQMTEEQREWLSYGCVGVTWVNSGQYPTNRLAFAFFDEDKYKNELKNGRPRSGETRAEFEGRVAKDSFDEAKGFQRARDVASVMNKALENAHDEGAYLDNLKKELANGNDALRNEDARSPFYSALRNTPSFKDRNGGNHDPSKMKAVIYSKHFWSGQDRSGSSDKRKYGDPEAFRPDRGTGLVDMSRDRNIPRSPTSPGESFVNFDYGWFGAQTEADADKTVWTHGNHYHAPNGSLGAMHVYESKFRNWSDGYSDFDRGAYVVTFVPKSWNTAPDKVKQGWP
B12 was tested, and the Activity (RFU/sec/µg), dansyl-cadaverine fluorescence kinetics (hGHQ141N, P01241) was 0.63 RFU/sec/µg, the “HPLC peak area of product-Q40 (FIG. 3, bottom)” value (hGHQ141N, P01241) was “The first peak (19.2 min, area 127) is product-Q40” and the product-Q40 after 30 minutes, FPLC areas normalized to 100 (normalized to 100) (hGHQ141N, P01241) was 10. The Activity towards hGHQ40N (RFU/sec/µg), dansyl-cadaverine fluorescence kinetics (hGHQ40N, P01241) was 3.55 RFU/sec/µg, the “HPLC peak area of product-Q141 (FIG. 3, top)” value (hGHQ40N, P01241) was “The first peak (26.5 min, area 1238) is product-Q141” and the product-Q141 after 30 minutes, FPLC areas normalized to 100 (normalized to 100) (hGHQ40N, P01241) was 77.

— patent publication US20100099610
